Substitutions are numbered along the chain they refer to.

The target in the experiment is T1, β-gal alone (λgt 11 phage control proteins) (UniProt P00722 2-1024 = β-galactosidase).
T1 construct: Negative control dot; also called β-gal alone (4); λgt 11 phage control proteins (4)
The experiment in a line: dot blot of β-gal fusion proteins, anti-human Fab detection. As to the method:
Expression of Recombinant Fragments of the Phl p 2 Allergen for Mapping of the Binding Sites of the Human IgE Fabs Lambda gt11 phage clones expressing β-galactosidase fused complete Phl p 2 and Phl p 2 fragments were generated as described (8). E. coli Y1090 were plated as confluent lawn onto LB plates containing 100 mg/l ampicillin (19). Two µl aliquots of phage lysates containing >10^6 plaque-forming units of each phage clone were dotted onto the E. coli lawn in defined order and plates were incubated at 43° C. until plaques became visible. The synthesis of recombinant protein was induced by overlay with 10 mM IPTG-soaked nitrocellulose filters (Schleicher& Schuell, Dassel, Germany) for additional 4 hours The clones which reacted with the IgE Fabs were identified by immunoscreening. For this purpose filters were washed twice for 5 min and once for 30 min with TBST containing 0.5% w/v BSA at roomtemperature and then probed overnight with E. coli extracts containing anti-Phl p 2 Fab and, for control purposes, with extracts from E. coli transformed with the empty pComb 3H plasmid at 4° C. After washing, the Fabs were detected with an alkaline phospatase-coupled goat anti-human Fab antiserum diluted 1:5000 in TBST/0.5% w/v BSA.
A Recombinant Fragment Comprising the N-terminal 64 Amino Acids of Phl p 2 Contains the Binding Site for the IgE Fabs In order to determine the binding site for the rPhl p 2-specific IgE Fabs, nitrocellulose-dotted complete β-gal-fused rPhl p 2 allergen (96 aa), a N-terminal rPhl p 2 fragment comprising the first 64 aa portion (1-64) and a 69 aa long C-terminal rPhl p 2 fragment (28-96 aa) were exposed to the Fabs (FIG. 2A). […] The N-terminal and C-terminal fragment have been indicated in the model (FIG. 2B).

T1 sequence (P00722 2-1024 limits assumed): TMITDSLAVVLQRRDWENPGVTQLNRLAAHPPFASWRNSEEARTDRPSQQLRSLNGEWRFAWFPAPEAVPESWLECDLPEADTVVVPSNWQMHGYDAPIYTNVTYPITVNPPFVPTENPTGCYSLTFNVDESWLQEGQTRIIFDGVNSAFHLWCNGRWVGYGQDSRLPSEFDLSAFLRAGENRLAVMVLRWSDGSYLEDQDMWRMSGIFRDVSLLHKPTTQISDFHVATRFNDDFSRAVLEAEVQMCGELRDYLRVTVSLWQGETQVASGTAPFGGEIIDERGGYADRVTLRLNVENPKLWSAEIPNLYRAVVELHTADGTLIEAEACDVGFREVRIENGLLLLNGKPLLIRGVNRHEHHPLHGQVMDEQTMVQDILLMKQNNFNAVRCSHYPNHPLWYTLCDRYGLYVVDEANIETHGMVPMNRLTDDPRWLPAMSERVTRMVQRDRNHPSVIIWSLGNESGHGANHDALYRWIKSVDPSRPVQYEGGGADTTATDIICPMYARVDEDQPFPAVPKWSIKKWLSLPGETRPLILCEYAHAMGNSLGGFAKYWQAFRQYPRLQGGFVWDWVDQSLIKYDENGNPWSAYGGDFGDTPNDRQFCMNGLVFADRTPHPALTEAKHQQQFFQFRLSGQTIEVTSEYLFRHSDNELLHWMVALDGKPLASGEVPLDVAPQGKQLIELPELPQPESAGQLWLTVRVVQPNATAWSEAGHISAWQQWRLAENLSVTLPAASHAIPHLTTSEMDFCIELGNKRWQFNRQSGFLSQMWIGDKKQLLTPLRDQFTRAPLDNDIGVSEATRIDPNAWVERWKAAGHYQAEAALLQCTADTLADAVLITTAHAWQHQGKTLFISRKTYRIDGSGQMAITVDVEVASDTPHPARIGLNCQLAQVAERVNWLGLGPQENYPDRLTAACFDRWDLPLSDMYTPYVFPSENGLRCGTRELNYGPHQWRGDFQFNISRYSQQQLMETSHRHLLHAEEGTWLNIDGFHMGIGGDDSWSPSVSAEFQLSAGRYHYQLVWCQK

B1: Phl p 2-specific human IgE Fab, clone 94 (Fab, V domains shown)
VH: LESGPGLVKPAQTLSLSCAVSGGSIRSGGYYWSWIRQHPGKGLEWIGYIYHSGNTYYNPSLKSRIAMSVDTSENKFSLRLNSVTAADTAVYYCARLDGYTLDIWGQGTLVTVSS
VL: ELTQSPSSLSASVGDRVTISCRASQRINTYLNWYQHKPGKAPKLLIYAASSLQSGVPSRFSGSGYGTDFTLTISSLQFEDFASYYCQESLSASYTFGQGTKVEIKR
notes: Human IgE Fab (heavy chain fragment Fd plus kappa light chain) expressed from pComb3H in E. coli and used as bacterial extract; they start at the Xho I / Sac I cloning sites; also called clone 94-derived IgE Fab; rPhl p 2-specific IgE Fab
Regarding B1, the binding result is recorded as “no binding”.

B2: Phl p 2-specific human IgE Fab, clone 60 (Fab, V domains shown)
VH: LESGPGLVKPSQTLSLTCTVSGGSIRSGGYYWSWVRQPPGKGLEWIGNIYHSGNTYYNPSLKSRITMSVDTSKNHFSLRLTSVTAADTAVYYCARSDGYTLDNWGQGTLVTVSS
VL: ELTQSPSSLSASVGDRVTITCRARQSISTYLNWYQQKPGKAPKLLIWSASNLQSGVPSRFSGSGSGTEFTLTISNLQFEDFASYYCQQSYTTLYTFGSGTKLEIKR
notes: Human IgE Fab (Fd plus kappa light chain) expressed from pComb3H in E. coli and used as bacterial extract; also called rPhl p 2-specific IgE Fab; anti-Phl p 2 Fab
On to B2, for which the binding result is recorded as “no binding”.

B3: Phl p 2-specific human IgE Fab, clone 100 (Fab, V domains shown)
VH: B2 VH with V35I, N48Y, I65V, T81S
VL: ELTQSPSSVSASVGDRVTITCRASQGISSWLAWYQHQPGKAPKLLIYSASSLQSGVPSRFSGSGYGTDFSLTISSLQFEDSATYYCQQANSFPYTFGQGTKVEIKR
notes: as for B2
Take B3: the binding result is reported as “no binding”.

The record behind these values is US7288381 (PHADIA, dated 2007).
